We go through 1 molecule from patent US20090311267A1 (UNIVERSITY OF WURZBURG, published 2009).

For assay [1], the target named is human platelet glycoprotein GPIb (on human platelets) (human, UniProt P07359 17-652). As to the kind of experiment: cell-based or functional assay.
Assay [2] has as its target T1, (1-289) recombinant (r) GPIbα fragment expressed by Chinese hamster ovary cells (human, UniProt P07359 17-305).
T1 construct: they seem to count on the mature chain, not on the precursor; Fragment obtained from Meyer et al; also called rGPIb-fragment; recombinant GPIbα fragment (His1-Val289)
As to the kind of experiment: ELISA: inhibition of ristocetin (300 µg/ml)-induced binding of vWF to rGPIbα captured on 2D4. A general note: An ELISA detects its analyte on a solid surface through an enzyme-linked reagent.

Assay [3] concerns the target T1, (1-289) recombinant (r) GPIbα fragment …. As to the kind of experiment: ELISA: inhibition of botrocetin (0.5 µg/ml)-induced binding of vWF to rGPIbα captured on 2D4.

Values joined by “and” are separate entries in the source; they are usually repeats but may differ in a detail not shown here. Equal values may be shown once.

B1: 6B4 Fab fragments (Fab, V domains shown)
VH: QVQLQESGPGLVAPSQSLSITCTVSGISLNRYGVHWVRQPPGKGLEWLGVIWTGGSTNYNSALMSRLSISKDNSKSQVFLKMNSLQTDDTAMYYCARDRSTMITAYAMDYWGQGTTVTVSS
VL: DIELTQSPAIMSASPGEKVTMTCSASSSVNYMHWFQQESGTFPKRRIYDTSKLASGVPARLSGSGSGTEFTLEISRVKAEDVGVYYCQQLVEYPLTFGAGTKLELK
As to B1, in assay [1], the “IC50 of botrocetin-(0.5 µg/ml) induced human platelet agglutination” value was 2 µg/ml and 40 nmol/L; the “IC50 of ristocetin-(1 mg/ml) induced human platelet agglutination” value was 1.2 µg/ml and 24 nmol/L. The half-inhibitory concentration (IC50) (in general, the concentration that gives 50% inhibition) in assay [2] is 1.8 µg/mL and 36 nM. In addition, in assay [3], the IC50 is 2.5 µg/mL and 50 nM.
